Biological target: T1, extracellular domain of human DCC (M1-N1097) with a C-terminal Fc tag (human, UniProt P43146 26-1097)
T1 construct: signal peptide in the construct; Deleted in Colorectal Cancer (DCC), human, extracellular domain, amino acids 1-1097; On the array it was loaded on protein-A microbeads 1:1 with Cy5-labeled human IgG; in SPR it was amine-coupled to the chip; also called DCC-Fc; source: CHO cells, transient transfection, purified (protein A-Sepharose, gel filtration); not shown: Fc (human IgG), C-terminal, kept
T1 sequence (P43146 26-1097): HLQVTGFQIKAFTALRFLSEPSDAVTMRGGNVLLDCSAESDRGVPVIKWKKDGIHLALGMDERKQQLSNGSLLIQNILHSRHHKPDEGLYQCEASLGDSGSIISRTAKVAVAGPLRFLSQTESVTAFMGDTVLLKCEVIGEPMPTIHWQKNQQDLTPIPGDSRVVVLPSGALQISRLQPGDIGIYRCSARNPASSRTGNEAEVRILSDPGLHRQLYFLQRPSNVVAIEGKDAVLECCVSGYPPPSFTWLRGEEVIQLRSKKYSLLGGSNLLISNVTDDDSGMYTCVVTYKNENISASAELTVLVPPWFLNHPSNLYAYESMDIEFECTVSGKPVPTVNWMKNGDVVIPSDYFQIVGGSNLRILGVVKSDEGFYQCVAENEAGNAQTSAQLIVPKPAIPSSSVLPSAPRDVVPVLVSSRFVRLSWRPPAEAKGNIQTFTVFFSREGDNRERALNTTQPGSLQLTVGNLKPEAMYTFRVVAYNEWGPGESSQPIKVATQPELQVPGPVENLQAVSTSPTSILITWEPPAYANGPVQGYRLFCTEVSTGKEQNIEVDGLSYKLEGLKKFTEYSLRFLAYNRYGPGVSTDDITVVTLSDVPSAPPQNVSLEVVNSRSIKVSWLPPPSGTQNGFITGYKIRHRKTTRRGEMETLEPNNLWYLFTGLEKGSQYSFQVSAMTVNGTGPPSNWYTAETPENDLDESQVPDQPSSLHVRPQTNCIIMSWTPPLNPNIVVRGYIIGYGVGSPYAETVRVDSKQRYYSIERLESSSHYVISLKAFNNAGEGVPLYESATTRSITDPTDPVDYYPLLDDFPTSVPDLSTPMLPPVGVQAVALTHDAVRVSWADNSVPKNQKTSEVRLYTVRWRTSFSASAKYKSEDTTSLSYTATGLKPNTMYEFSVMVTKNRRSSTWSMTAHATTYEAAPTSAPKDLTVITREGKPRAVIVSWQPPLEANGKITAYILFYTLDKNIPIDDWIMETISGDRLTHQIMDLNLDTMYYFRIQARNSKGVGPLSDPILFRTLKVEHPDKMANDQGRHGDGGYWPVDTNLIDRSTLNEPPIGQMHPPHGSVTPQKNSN
Test: peptide or protein array; DCC-Fc mixed 1:1 with Cy5-labeled hIgG on multivalent protein-A microbeads, incubated with extracellular protein microarrays (Library 1: 1,334 samples; Library 2: 624 samples) on epoxysilane slides; washed with PBS-T; Cy5 fluorescence; two replicate screens
Settings: both partners purified

- binding result: binds
B1: full length CBLN4 C-terminal His (ligand, human, UniProt Q9NTU7 28-201, looked up)
chain: QNDTEPIVLEGKCLVVCDSNPATDSKGSSSSPLGISVRAANSKVAFSAVRSTNHEPSEMSNKTRIIYFDQILVNVGNFFTLESVFVAPRKGIYSFSFHVIKVYQSQTIQVNLMLNGKPVISAFAGDKDVTREAATNGVLLYLDKEDKVYLKLEKGNLVGGWQYSTFSGFLVFPL
notes: Cerebellin 4 (CBLN4), full length; also called CBLN4-His
